From the RNAGym collection of RNA variant scans (doi:10.7554/elife.80360)

B1: HDV Ribozyme (parent)
chain: GGCCGGCAUGGUCCCAGCCUCCUCGCUGGCGCCGGCUGGGCAACAUUCCGAGGGGACCGUCCCCUCGGUAAUGGCGAAUGGGACCCA

Variants of: B1
Assay: self-cleavage, relative activity (ratio to wild type); higher = more cleavage; co-transcriptional

Variant | self-cleavage
GGCCGGCAUGGUCCCAGCCUCCUCGCUGGCGCCGGCUGGGCAACAUUCCGAGGGGACCGUCCCCUCGGUAAUGGCGAACGGAACCCA [U79C G82A] | 0.133
GGCCGGCAUGGUCCCAGCCUCCUCGCUGGCGCCGGCUGGGCAACAUUCCGAGGGGACCGUCCCCUCGGUAAUGGCGAAGGGGACCCA [U79G] | 0.742
GGCCGGCAUGGUCCCAGCCUCCUCGCUGGCGCCGGCUGGGCAACAUUCCGAGGGGACCGUCCCCUCGGUAAUGGCGAACGGGACCCA [U79C] | 0.438
GGCCGGCAUGGUCCCAGCCUCCUCGCUGGCGCCGGCUGGGCAACAUUCCGAGGGGACCGUCCCCUCGGUAAUGGCGAACCGGACCCA [U79C G80C] | 0.208
GGCCGGCAUGGUCCCAGCCUCCUCGCUGGCGCCGGCUGGGCAACAUUCCGAGGGGACCGUCCCCUCGGUAAUGGCGAACGAGACCCA [U79C G81A] | 0.208
GGCCGGCAUGGUCCCAGCCUCCUCGCUGGCGCCGGCUGGGCAACAUUCCGAGGGGACCGUCCCCUCGGUAAUGGCGAACGCGACCCA [U79C G81C] | 0.189
GGCCGGCAUGGUCCCAGCCUCCUCGCUGGCGCCGGCUGGGCAACAUUCCGAGGGGACCGUCCCCUCGGUAAUGGCGAACGUGACCCA [U79C G81U] | 0.225
GGCCGGCAUGGUCCCAGCCUCCUCGCUGGCGCCGGCUGGGCAACAUUCCGAGGGGACCGUCCCCUCGGUAAUGGCGAAUAGGACGCA [G80A C85G] | 0.312
GGCCGGCAUGGUCCCAGCCUCCUCGCUGGCGCCGGCUGGGCAACAUUCCGAGGGGACCGUCCCCUCGGUAAUGGCGAAUAGGACUCA [G80A C85U] | 0.339
GGCCGGCAUGGUCCCAGCCUCCUCGCUGGCGCCGGCUGGGCAACAUUCCGAGGGGACCGUCCCCUCGGUAAUGGCGAAUUGGACUCA [G80U C85U] | 0.227
GGCCGGCAUGGUCCCAGCCUCCUCGCUGGCGCCGGCUGGGCAACAUUCCGAGGGGACCGUCCCCUCGGUAAUGGCGAAGAGGACCCA [U79G G80A] | 0.249
GGCCGGCAUGGUCCCAGCCUCCUCGCUGGCGCCGGCUGGGCAACAUUCCGAGGGGACCGUCCCCUCGGUAAUGGCGAAGUGGACCCA [U79G G80U] | 0.366
GGCCGGCAUGGUCCCAGCCUCCUCGCUGGCGCCGGCUGGGCAACAUUCCGAGGGGACCGUCCCCUCGGUAAUGGCGAAUCGGGCCCA [G80C A83G] | 0.102
GGCCGGCAUGGUCCCAGCCUCCUCGCUGGCGCCGGCUGGGCAACAUUCCGAGGGGACCGUCCCCUCGGUAAUGGCGAAUAGGACCAA [G80A C86A] | 0.532
GGCCGGCAUGGUCCCAGCCUCCUCGCUGGCGCCGGCUGGGCAACAUUCCGAGGGGACCGUCCCCUCGGUAAUGGCGAAUAGGACCUA [G80A C86U] | 0.409
GGCCGGCAUGGUCCCAGCCUCCUCGCUGGCGCCGGCUGGGCAACAUUCCGAGGGGACCGUCCCCUCGGUAAUGGCGAAUUGGUCCCA [G80U A83U] | 0.181
GGCCGGCAUGGUCCCAGCCUCCUCGCUGGCGCCGGCUGGGCAACAUUCCGAGGGGACCGUCCCCUCGGUAAUGGCGAAGGGGACUCA [U79G C85U] | 0.705
GGCCGGCAUGGUCCCAGCCUCCUCGCUGGCGCCGGCUGGGCAACAUUCCGAGGGGACCGUCCCCUCGGUAAUGGCGAAGGGGACGCA [U79G C85G] | 0.575
GGCCGGCAUGGUCCCAGCCUCCUCGCUGGCGCCGGCUGGGCAACAUUCCGAGGGGACCGUCCCCUCGGUAAUGGCGAAUCGGACUCA [G80C C85U] | 0.194
GGCCGGCAUGGUCCCAGCCUCCUCGCUGGCGCCGGCUGGGCAACAUUCCGAGGGGACCGUCCCCUCGGUAAUGGCGAAUCGGACACA [G80C C85A] | 0.117
GGCCGGCAUGGUCCCAGCCUCCUCGCUGGCGCCGGCUGGGCAACAUUCCGAGGGGACCGUCCCCUCGGUAAUGGCGAAUAGCACCCA [G80A G82C] | 0.0978
GGCCGGCAUGGUCCCAGCCUCCUCGCUGGCGCCGGCUGGGCAACAUUCCGAGGGGACCGUCCCCUCGGUAAUGGCGAAUAGAACCCA [G80A G82A] | 0.244

Variant | self-cleavage
GGCCGGCAUGGUCCCAGCCUCCUCGCUGGCGCCGGCUGGGCAACAUUCCGAGGGGACCGUCCCCUCGGUAAUGGCGAAUCGGACCGA [G80C C86G] | 0.192
GGCCGGCAUGGUCCCAGCCUCCUCGCUGGCGCCGGCUGGGCAACAUUCCGAGGGGACCGUCCCCUCGGUAAUGGCGAAGGGAACCCA [U79G G82A] | 0.0875
GGCCGGCAUGGUCCCAGCCUCCUCGCUGGCGCCGGCUGGGCAACAUUCCGAGGGGACCGUCCCCUCGGUAAUGGCGAAGGGUACCCA [U79G G82U] | 0.271
GGCCGGCAUGGUCCCAGCCUCCUCGCUGGCGCCGGCUGGGCAACAUUCCGAGGGGACCGUCCCCUCGGUAAUGGCGAAUACGACCCA [G80A G81C] | 0.106
GGCCGGCAUGGUCCCAGCCUCCUCGCUGGCGCCGGCUGGGCAACAUUCCGAGGGGACCGUCCCCUCGGUAAUGGCGAAUAUGACCCA [G80A G81U] | 0.0936
GGCCGGCAUGGUCCCAGCCUCCUCGCUGGCGCCGGCUGGGCAACAUUCCGAGGGGACCGUCCCCUCGGUAAUGGCGAAUAGGAUCCA [G80A C84U] | 0.197
GGCCGGCAUGGUCCCAGCCUCCUCGCUGGCGCCGGCUGGGCAACAUUCCGAGGGGACCGUCCCCUCGGUAAUGGCGAAUAGGGCCCA [G80A A83G] | 0.396
GGCCGGCAUGGUCCCAGCCUCCUCGCUGGCGCCGGCUGGGCAACAUUCCGAGGGGACCGUCCCCUCGGUAAUGGCGAAUAGGUCCCA [G80A A83U] | 0.229
GGCCGGCAUGGUCCCAGCCUCCUCGCUGGCGCCGGCUGGGCAACAUUCCGAGGGGACCGUCCCCUCGGUAAUGGCGAAGGGGACCCC [U79G A87C] | 0.656
GGCCGGCAUGGUCCCAGCCUCCUCGCUGGCGCCGGCUGGGCAACAUUCCGAGGGGACCGUCCCCUCGGUAAUGGCGAAGGGGACCCU [U79G A87U] | 0.511
GGCCGGCAUGGUCCCAGCCUCCUCGCUGGCGCCGGCUGGGCAACAUUCCGAGGGGACCGUCCCCUCGGUAAUGGCGAAGGGGACCCG [U79G A87G] | 0.669
GGCCGGCAUGGUCCCAGCCUCCUCGCUGGCGCCGGCUGGGCAACAUUCCGAGGGGACCGUCCCCUCGGUAAUGGCGAACGGGAUCCA [U79C C84U] | 0.332
GGCCGGCAUGGUCCCAGCCUCCUCGCUGGCGCCGGCUGGGCAACAUUCCGAGGGGACCGUCCCCUCGGUAAUGGCGAACGGGAGCCA [U79C C84G] | 0.214
GGCCGGCAUGGUCCCAGCCUCCUCGCUGGCGCCGGCUGGGCAACAUUCCGAGGGGACCGUCCCCUCGGUAAUGGCGAAUCGGACCCA [G80C] | 0.187
GGCCGGCAUGGUCCCAGCCUCCUCGCUGGCGCCGGCUGGGCAACAUUCCGAGGGGACCGUCCCCUCGGUAAUGGCGAAUUGGACCCA [G80U] | 0.223
GGCCGGCAUGGUCCCAGCCUCCUCGCUGGCGCCGGCUGGGCAACAUUCCGAGGGGACCGUCCCCUCGGUAAUGGCGAAUAGGACCCA [G80A] | 0.348
GGCCGGCAUGGUCCCAGCCUCCUCGCUGGCGCCGGCUGGGCAACAUUCCGAGGGGACCGUCCCCUCGGUAAUGGCGAAGGAGACCCA [U79G G81A] | 0.146
GGCCGGCAUGGUCCCAGCCUCCUCGCUGGCGCCGGCUGGGCAACAUUCCGAGGGGACCGUCCCCUCGGUAAUGGCGAAGGUGACCCA [U79G G81U] | 0.225
GGCCGGCAUGGUCCCAGCCUCCUCGCUGGCGCCGGCUGGGCAACAUUCCGAGGGGACCGUCCCCUCGGUAAUGGCGAAGGGGAACCA [U79G C84A] | 0.38
GGCCGGCAUGGUCCCAGCCUCCUCGCUGGCGCCGGCUGGGCAACAUUCCGAGGGGACCGUCCCCUCGGUAAUGGCGAAGGGGAGCCA [U79G C84G] | 0.185
GGCCGGCAUGGUCCCAGCCUCCUCGCUGGCGCCGGCUGGGCAACAUUCCGAGGGGACCGUCCCCUCGGUAAUGGCGAAUCGCACCCA [G80C G82C] | 0.166
GGCCGGCAUGGUCCCAGCCUCCUCGCUGGCGCCGGCUGGGCAACAUUCCGAGGGGACCGUCCCCUCGGUAAUGGCGAAUCGAACCCA [G80C G82A] | 0.0824

Variant | self-cleavage
GGCCGGCAUGGUCCCAGCCUCCUCGCUGGCGCCGGCUGGGCAACAUUCCGAGGGGACCGUCCCCUCGGUAAUGGCGAAUCGUACCCA [G80C G82U] | 0.0782
GGCCGGCAUGGUCCCAGCCUCCUCGCUGGCGCCGGCUGGGCAACAUUCCGAGGGGACCGUCCCCUCGGUAAUGGCGAAAGGAACCCA [U79A G82A] | 0.227
GGCCGGCAUGGUCCCAGCCUCCUCGCUGGCGCCGGCUGGGCAACAUUCCGAGGGGACCGUCCCCUCGGUAAUGGCGAACGGGACCCG [U79C A87G] | 0.47
GGCCGGCAUGGUCCCAGCCUCCUCGCUGGCGCCGGCUGGGCAACAUUCCGAGGGGACCGUCCCCUCGGUAAUGGCGAACGGGACCCC [U79C A87C] | 0.35
GGCCGGCAUGGUCCCAGCCUCCUCGCUGGCGCCGGCUGGGCAACAUUCCGAGGGGACCGUCCCCUCGGUAAUGGCGAACGGGACCCU [U79C A87U] | 0.373
GGCCGGCAUGGUCCCAGCCUCCUCGCUGGCGCCGGCUGGGCAACAUUCCGAGGGGACCGUCCCCUCGGUAAUGGCGAAUCGGACCCC [G80C A87C] | 0.237
GGCCGGCAUGGUCCCAGCCUCCUCGCUGGCGCCGGCUGGGCAACAUUCCGAGGGGACCGUCCCCUCGGUAAUGGCGAAUCGGACCCG [G80C A87G] | 0.211
GGCCGGCAUGGUCCCAGCCUCCUCGCUGGCGCCGGCUGGGCAACAUUCCGAGGGGACCGUCCCCUCGGUAAUGGCGAACGGGUCCCA [U79C A83U] | 0.323
GGCCGGCAUGGUCCCAGCCUCCUCGCUGGCGCCGGCUGGGCAACAUUCCGAGGGGACCGUCCCCUCGGUAAUGGCGAACGGGCCCCA [U79C A83C] | 0.374
GGCCGGCAUGGUCCCAGCCUCCUCGCUGGCGCCGGCUGGGCAACAUUCCGAGGGGACCGUCCCCUCGGUAAUGGCGAAACGGACCCA [U79A G80C] | 0.204
GGCCGGCAUGGUCCCAGCCUCCUCGCUGGCGCCGGCUGGGCAACAUUCCGAGGGGACCGUCCCCUCGGUAAUGGCGAACGGGACUCA [U79C C85U] | 0.499
GGCCGGCAUGGUCCCAGCCUCCUCGCUGGCGCCGGCUGGGCAACAUUCCGAGGGGACCGUCCCCUCGGUAAUGGCGAAGGGGGCCCA [U79G A83G] | 0.138
GGCCGGCAUGGUCCCAGCCUCCUCGCUGGCGCCGGCUGGGCAACAUUCCGAGGGGACCGUCCCCUCGGUAAUGGCGAAGGGGACCGA [U79G C86G] | 0.712
GGCCGGCAUGGUCCCAGCCUCCUCGCUGGCGCCGGCUGGGCAACAUUCCGAGGGGACCGUCCCCUCGGUAAUGGCGAAGGGGACCUA [U79G C86U] | 0.739
GGCCGGCAUGGUCCCAGCCUCCUCGCUGGCGCCGGCUGGGCAACAUUCCGAGGGGACCGUCCCCUCGGUAAUGGCGAAUCUGACCCA [G80C G81U] | 0.231
GGCCGGCAUGGUCCCAGCCUCCUCGCUGGCGCCGGCUGGGCAACAUUCCGAGGGGACCGUCCCCUCGGUAAUGGCGAAUCCGACCCA [G80C G81C] | 0.186
GGCCGGCAUGGUCCCAGCCUCCUCGCUGGCGCCGGCUGGGCAACAUUCCGAGGGGACCGUCCCCUCGGUAAUGGCGAAUAGGACCCU [G80A A87U] | 0.441
GGCCGGCAUGGUCCCAGCCUCCUCGCUGGCGCCGGCUGGGCAACAUUCCGAGGGGACCGUCCCCUCGGUAAUGGCGAAUAGGACCCC [G80A A87C] | 0.33
GGCCGGCAUGGUCCCAGCCUCCUCGCUGGCGCCGGCUGGGCAACAUUCCGAGGGGACCGUCCCCUCGGUAAUGGCGAACGGGACCGA [U79C C86G] | 0.284
GGCCGGCAUGGUCCCAGCCUCCUCGCUGGCGCCGGCUGGGCAACAUUCCGAGGGGACCGUCCCCUCGGUAAUGGCGAACGGGACCUA [U79C C86U] | 0.696
